The experiment deals with HA-tagged mutant (Leu15) AP2σ2 subunit (human) (human) (UniProt P53680). In words: co-IP.

A value given as a limit tells only on which side of the number the result lay.

In the case of “AP2α subunit, endogenous in HEK293 cells (from UniProt O95782 1-977) (natural protein)”, the reduction of the subunit in the HA-AP2σ2 immunoprecipitate against WT cells is over 50%.

(Values after doi:10.1101/2020.08.10.244244.)
